Measurements published in US20230037911A1 (SHANGHAI HENLIUS BIOTECH, published 2023).
Positions count from the first letter of the chain named. Names and notes keep the numbering of the source. Blank lines part the entries; values can stand above or below the binder they belong to.

Legend:
[1] = target: T1, recombinant human TIGIT extra cellular domain (ECD) protein (human, UniProt Q495A1 22-138); assay: blocking ELISA, PVR as competitor
T1 construct: Purchased protein; it begins with the signal peptide; also called h-TIGIT ECD; human TIGIT ECD
T1 sequence: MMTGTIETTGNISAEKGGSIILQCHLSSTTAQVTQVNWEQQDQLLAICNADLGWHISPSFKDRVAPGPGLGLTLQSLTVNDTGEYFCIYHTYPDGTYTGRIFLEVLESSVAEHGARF

[2] = target: T2, recombinant protein of his-tagged human TIGIT ECD (human, UniProt Q495A1 22-138); assay: Octet biolayer interferometry; BsAb loaded on the sensor, his-tagged h-TIGIT ECD at different concentrations (not given), then h-PDL1 ECD
T2 construct: Used in Octet assays; also called h-TIGIT ECD (his-tagged); not shown: his tag
T2 sequence: T1 sequence
Experimental: The sensors were loaded with BsAbs and then injected with different concentrations of recombinant protein of h-TIGIT ECD (his-tagged). After association of BsAbs with h-TIGIT, the sensors were injected again with different concentrations of recombinant protein of h-PDL1 ECD (his-tagged). […] Y axis represents association/disassociation and Rmax, X axis represents time in second.

[3] = target: T3, human TIGIT stably expressed on cells (Jurkat; 293T) (human, UniProt Q495A1 22-244); assay: flow cytometry on h-TIGIT stably transfected Jurkat cells; anti-h-IgG Fc AlexaFluor488 secondary
T3 construct: the expression vector's insert is not described further; also called h-TIGIT; human TIGIT transfected Jurkat cells
T3 sequence: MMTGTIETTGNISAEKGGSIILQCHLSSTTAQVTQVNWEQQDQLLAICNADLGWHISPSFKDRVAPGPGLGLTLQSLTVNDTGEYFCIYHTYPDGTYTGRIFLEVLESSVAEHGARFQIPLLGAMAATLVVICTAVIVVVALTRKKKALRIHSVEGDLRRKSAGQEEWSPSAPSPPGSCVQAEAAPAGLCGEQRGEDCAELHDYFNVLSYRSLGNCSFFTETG

[4] = target: T4, recombinant ECD of human FcγRIIB (human, UniProt P31994 43-217); assay: Octet (ForteBio) biolayer interferometry; sensor loaded with recombinant ECD of human FcγRIIB; antibody at 5 concentrations (not given)
T4 construct: extracellular domain
T4 sequence (looked up): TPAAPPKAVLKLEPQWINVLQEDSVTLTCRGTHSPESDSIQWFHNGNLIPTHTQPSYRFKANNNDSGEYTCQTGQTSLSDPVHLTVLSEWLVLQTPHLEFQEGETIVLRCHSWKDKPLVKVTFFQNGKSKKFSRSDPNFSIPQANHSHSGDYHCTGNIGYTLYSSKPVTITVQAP
Description: (§1) Y axis represents association, dissociation & Rmax. X axis represents time in second.

[5] = target: human FcγRIIIA on NFAT reporter Jurkat cells (human, UniProt P08637 17-254); assay: cell-based or functional assay
Chain of human FcγRIIIA on NFAT reporter Jurkat cells (P08637 17-254): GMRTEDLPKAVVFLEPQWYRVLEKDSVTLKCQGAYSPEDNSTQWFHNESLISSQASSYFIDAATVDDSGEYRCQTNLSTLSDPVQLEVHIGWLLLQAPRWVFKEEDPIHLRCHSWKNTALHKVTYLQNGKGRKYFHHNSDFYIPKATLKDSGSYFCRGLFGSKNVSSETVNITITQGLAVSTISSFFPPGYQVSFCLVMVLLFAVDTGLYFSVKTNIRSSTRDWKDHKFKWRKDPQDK

[6] = target: T5, recombinant ECD of mouse FcγRIV (mouse, UniProt A0A0B4J1G0 21-203); assay: Octet (ForteBio) biolayer interferometry; sensor loaded with recombinant ECD of mouse FcγRIV; antibody at 5 concentrations (not given)
T5 sequence: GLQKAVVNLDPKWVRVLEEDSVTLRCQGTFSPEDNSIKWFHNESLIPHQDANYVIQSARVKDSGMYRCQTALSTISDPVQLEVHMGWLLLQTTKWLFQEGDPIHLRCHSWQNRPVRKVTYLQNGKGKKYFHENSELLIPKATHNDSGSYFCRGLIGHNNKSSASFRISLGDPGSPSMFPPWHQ
Description: as §1

[7] = target: T3, human TIGIT stably expressed on cells …; assay: cell-based or functional assay
[8] = target: T1, recombinant human TIGIT extra cellular …; assay: ELISA on h-TIGIT ECD; VHH samples heated at 25 to 70 °C for 60 min (thermostability); concentration not given
Experimental: (§2) FIGS. 6A and 6B depict thermostability tested for representative clones. The VHH antibody samples were heated from 25 to 70° C. for 60 min. Binding of heated samples to human TIGIT was examined using ELISA or whole cell binding. […] Y axis represents OD450 obtained from the ELISA assay. X axis represents temperature for the treatment. […] Y axis represents percentage of binding to h-TIGIT. X axis represents temperature for the treatment.

[9] = target: T3, human TIGIT stably expressed on cells …; assay: flow cytometry on Jurkat cells stably expressing h-TIGIT; VHH samples heated at 25 to 70 °C for 60 min (thermostability); concentration not given
Experimental: as §2

[10] = target: T3, human TIGIT stably expressed on cells …; assay: whole cell binding

inhibition of PVR binding to h-TIGIT [1]: > 90%
B1: 15A5 VHH (VHH)
VHH: QVQLVESGGGLVQAGGSLRLSCAASERTFSSFAMGWFRQAPGKEREVVAAIDPSGRYIYYKDSVKGRFTMSRDNAKSTVYLQMNSLKPDDTARYYCAARIRGEGYYTRSSFYHYWGQGTQVTVSS
notes: VHH in bacterial supernatant

binding result [2]: binds
binding result [3]: binds
B2: anti-TIGIT x anti-PDL1 bispecific antibody LCN (VHH 2A3 fused to the N-terminal of the anti-PDL1 light chain) (bispecific antibody, human IgG1, lambda)
heavy: not shown
light: QVQLVESGGGVVQPGRSLRLSCAASGGSFSSYPMGWFRQAPGKERESVAAISSDMRFTYYADSVKGRFTISRDNSKNTLYLQMNSLRAEDTAVYYCAARDSGVGYYSRAQWYDYWGQGTLVTVSSGSGGSGGSGGSGQSVVTQPPPVSGAPGQRVTISCTGSSSNVGAGYDVHWYQQLPGTAPKLLIYGNSQRSSGVPDRFSGSKSGTSASLAITGLQAEDEADYYCQTYDSSGSARVVFGGGTKLTVLGQPKAAPSVTLFPPSSEELQANKATLVCLISDFYPGAVTVAWKADSSPVKAGVETTTPSKQSNNKYAASSYLSLTPEQWKSHKSYSCQVTHEGSTVEKTVAPTECS
notes: also called aTIGITx aPDL1-LCN

binding result [4]: binds
EC50 (nM), FcγRIIIA-mediated NFAT luciferase reporter activity, Average [5]: 0.024 nM
EC50 (nM), FcγRIIIA-mediated NFAT luciferase reporter activity, Exp 1 [5]: 0.027 nM
EC50 (nM), FcγRIIIA-mediated NFAT luciferase reporter activity, Exp 2 [5]: 0.0295 nM
EC50 (nM), FcγRIIIA-mediated NFAT luciferase reporter activity, Exp 3 [5]: 0.018 nM
EC50 (nM), FcγRIIIA-mediated NFAT luciferase reporter activity, Exp 4 [5]: 0.02 nM
binding result [6]: binds
EC50 (nM), TIGIT blockade NFAT luciferase reporter assay, Average [7]: 0.97 nM
EC50 (nM), TIGIT blockade NFAT luciferase reporter assay, Exp 1 [7]: 0.67 nM
EC50 (nM), TIGIT blockade NFAT luciferase reporter assay, Exp 2 [7]: 0.92 nM
EC50 (nM), TIGIT blockade NFAT luciferase reporter assay, Exp 3 [7]: 1.32 nM
B3: 2A3-LT-Fc-DLE (Fc mutations S239D, A330L and I332E) (Fc fusion)
chain: QVQLVESGGGVVQPGRSLRLSCAASGGSFSSYPMGWFRQAPGKERESVAAISSDLRFTYYADSVKGRFTISRDNSKNTLYLQMNSLRAEDTAVYYCAARTSGVGYYSRAQWYDYWGQGTLVTVSSEPKSCDKTHTCPPCPAPELLGGPDVFLFPPKPKDTLMISRTPEVTCVVVDVSHEDPEVKFNWYVDGVEVHNAKTKPREEQYNSTYRVVSVLTVLHQDWLNGKEYKCKVSNKALPLPEEKTISKAKGQPREPQVYTLPPSREEMTKNQVSLTCLVKGFYPSDIAVEWESNGQPENNYKTTPPVLDSDGSFFLYSKLTVDKSRWQQGNVFSCSVMHEALHNHYTQKSLSLSPGK
notes: also called DLE mutant

binding result [2]: binds
binding result [3]: binds
B4: anti-TIGIT x anti-PDL1 bispecific antibody LCC (VHH 2A3 fused to the C-terminal of the anti-PDL1 light chain) (bispecific antibody, human IgG1, lambda)
heavy: not shown
light: QSVVTQPPPVSGAPGQRVTISCTGSSSNVGAGYDVHWYQQLPGTAPKLLIYGNSQRSSGVPDRFSGSKSGTSASLAITGLQAEDEADYYCQTYDSSGSARVVFGGGTKLTVLGQPKAAPSVTLFPPSSEELQANKATLVCLISDFYPGAVTVAWKADSSPVKAGVETTTPSKQSNNKYAASSYLSLTPEQWKSHKSYSCQVTHEGSTVEKTVAPTECSGSGGSGGSGGSGQVQLVESGGGVVQPGRSLRLSCAASGGSFSSYPMGWFRQAPGKERESVAAISSDMRFTYYADSVKGRFTISRDNSKNTLYLQMNSLRAEDTAVYYCAARDSGVGYYSRAQWYDYWGQGTLVTVSS
notes: likely a printing error; also called aTIGITx aPDL1-LCC

binding result [2]: binds
binding result [3]: binds
B5: anti-TIGIT x anti-PDL1 bispecific antibody HCC (VHH 2A3 fused to the C-terminal of the anti-PDL1 heavy chain) (bispecific antibody, human IgG1, lambda)
heavy: not shown
light: QSVVTQPPPVSGAPGQRVTISCTGSSSNVGAGYDVHWYQQLPGTAPKLLIYGNSQRSSGVPDRFSGSKSGTSASLAITGLQAEDEADYYCQTYDSSGSARVVFGGGTKLTVLGQPKAAPSVTLFPPSSEELQANKATLVCLISDFYPGAVTVAWKADSSPVKAGVETTTPSKQSNNKYAASSYLSLTPEQWKSHKSYSCQVTHEGSTVEKTVAPTECS
notes: also called aTIGITx aPDL1-HCC; BsAb HCC

binding result [2]: binds
binding result [3]: binds
B6: anti-TIGIT x anti-PDL1 bispecific antibody HCN (VHH 2A3 fused to the N-terminal of the anti-PDL1 heavy chain) (bispecific antibody, human IgG1, lambda)
heavy: not shown
light: B5 light
notes: also called aTIGITx aPDL1-HCN; BsAb HCN

inhibition of PVR binding to h-TIGIT [1]: > 90%
B7: 3F10 VHH (VHH)
VHH: QVQLVESGGGLVQAGGSLRLSCASSEHTFSNFPMGWFRQAPGKERNVVAAIDSSGRLTYYADSVKGRFTISKDNAKSTVYLQMNSLKSEDTARYYCAARTGGVGYYSRSSFYNYWGQGTLVTVSS
notes: VHH in bacterial supernatant

inhibition of PVR binding to h-TIGIT [1]: > 90%
B8: 13H11 VHH (VHH)
VHH: QVQLVESGGGLVQAGGSLRLSCAASGLTFSMYAMGWFRQGPGKERESVAAISSDGRFTYYAASVKGRFTISKDNAKSAAFLQMNSLKPEDTAVYYCAARDSGSGYYSRAQWYDYWGQGTQVTVSS
notes: VHH in bacterial supernatant

inhibition of PVR binding to h-TIGIT [1]: > 90%
B9: 2B7 VHH (VHH)
VHH: B8 VHH with S21A, L27R, M31S, A33P
notes: VHH in bacterial supernatant

inhibition of PVR binding to h-TIGIT [1]: > 90%
B10: 1G1 VHH (VHH)
VHH: B8 VHH with G16D, A23V, L27P, T28S, M31S, A33P, Q120L
notes: VHH in bacterial supernatant

binding result [8]: binds
binding result [9]: binds
B11: 1A8 VHH (VHH)
VHH: QVQLVESGGGVVQPGRSLRLSCAASGPSFSSYPMGWFRQAPGKERESVAAISSRGRFTYYADSVKGRFTISRDNSKNTLYLQMNSLRAEDTAVYYCAARDSGSGYYSRAQWYDYWGQGTLVTVSS
notes: VHH in bacterial supernatant

binding result [10]: binds
B12: 2A3 MI (2A3 with methionine to isoleucine in CDR2) (VHH)
VHH: B11 VHH with P27G, R54D, G55I, S103V

binding result [10]: binds
B13: 2A3 ML_DE (2A3 with M to L in CDR2 and D to E in CDR3) (VHH)
VHH: B11 VHH with P27G, R54D, G55L, D100E, S103V

binding result [8]: binds
binding result [9]: binds
B14: 7F6 VHH (VHH)
VHH: B11 VHH with S28M, R54D, G55P
notes: VHH in bacterial supernatant

binding result [8]: binds
binding result [9]: binds
B15: 6F12 VHH (VHH)
VHH: B11 VHH with S30T, R54D, T58K, R99E
notes: VHH in bacterial supernatant

binding result [10]: binds
B16: 2A3 ML (2A3 with methionine to leucine in CDR2) (VHH)
VHH: B11 VHH with P27G, R54D, G55L, S103V

inhibition of PVR binding to h-TIGIT [1]: > 90%
B17: 3G6 VHH (VHH)
VHH: QVQLVESGGGLVQAGGSLSLSCAASGSIFGISVMGWYRQAPGEQRDLVATLTRAGLTTYGDSVKGRFSISRDSAKNTVYLQMNNLKPEDTAVYYCHANIMESAASTFGRYWGQGTQVTVSS
notes: VHH in bacterial supernatant

inhibition of PVR binding to h-TIGIT [1]: > 90%
B18: 2B10 VHH (VHH)
VHH: QVKLEESGGGLVQTGDSLRLSCAASSRIFRRYAMGWFRQAPGKEREFVAAITWSGASTTYTDSVKGRFTISRDSAENTTYLQMTSLRPEDTAVYYCAADPWGSVIVGTAEYEYWGQGTLVTVSS
notes: VHH in bacterial supernatant

inhibition of PVR binding to h-TIGIT [1]: > 90%
B19: 1C12 VHH (VHH)
VHH: QVQLVESGGGLVQTGDSLRLSCAASSRIFSRYGMGWFRQAPGKEREFVAAISWNGASTTYTDSVKGRFTISRDSAENTTYLQINSLRPEDTAVYYCAADPWGAVKLGTAEYEYWGQGTQVTVSS
notes: VHH in bacterial supernatant
